Common to all, as to assay: ITC; synthetic peptide in the syringe titrated into GD-26 Fab or GD-26 IgG (10 μM) in the cell; 25 °C; 50 mM Tris, 150 mM NaCl, pH 7.5; one-set-of-sites model
What all share (settings): both partners purified
For orientation: ITC needs no label: the signal is the heat of the interaction.

Test [1] deals with T1, TD peptide A7W (A7W (stands in the printed letters)).
T1 construct: TD peptide (C terminus of HmBRI) with A7W; numbers count on: the TD peptide; source: synthetic peptide
T1 chain: GTGATPWDD

The target in test [2] is T2, TD peptide A7S (A7S (stands in the printed letters)).
T2 construct: TD peptide (C terminus of HmBRI) with A7S; numbers count on: the TD peptide; source: synthetic peptide
T2 chain: GTGATPSDD

The target in test [3] is T3, TD peptide A7Y (A7Y (stands in the printed letters)).
T3 construct: TD peptide (C terminus of HmBRI) with A7Y; numbers count on: the TD peptide; source: synthetic peptide
T3 chain: GTGATPYDD

Test [4] has as its target T4, TD peptide A7H (A7H (stands in the printed letters)).
T4 construct: TD peptide (C terminus of HmBRI) with A7H; numbers count on: the TD peptide; source: synthetic peptide
T4 chain: GTGATPHDD

Test [5] has as its target T5, TD peptide A7R (A7R (stands in the printed letters)).
T5 construct: TD peptide (C terminus of HmBRI) with A7R; numbers count on: the TD peptide; source: synthetic peptide
T5 chain: GTGATPRDD

Test [6] addresses T6, TD peptide P6F (P6F (stands in the printed letters)).
T6 construct: TD peptide (C terminus of HmBRI) with P6F; numbers count on: the TD peptide; source: synthetic peptide
T6 chain: GTGATFADD

In test [7] the target is T7, TD peptide P6A (P6A (stands in the printed letters)).
T7 construct: TD peptide (C terminus of HmBRI) with P6A; numbers count on: the TD peptide; source: synthetic peptide
T7 chain: GTGATAADD

In test [8] the target is T8, TD peptide P6G (P6G (stands in the printed letters)).
T8 construct: TD peptide (C terminus of HmBRI) with P6G; numbers count on: the TD peptide; source: synthetic peptide
T8 chain: GTGATGADD

Test [9] deals with T9, TD peptide G1M (G1M (stands in the printed letters)).
T9 construct: TD peptide (C terminus of HmBRI) with G1M; numbers count on: the TD peptide; source: synthetic peptide
T9 chain: MTGATPADD

Test [10] deals with T10, TD peptide M1 (Met attached to the N terminus) (Haloarcula marismortui HmBRI C-terminal …).
T10 construct: TD peptide (C terminus of HmBRI) with one Met attached before Gly1; source: synthetic peptide
T10 chain: MGTGATPADD

Test [11] deals with T11, TD peptide (GTGATPADD), peptide V from the C terminus of HmBRI D94N (Haloarcula marismortui HmBRI C terminus …).
T11 construct: nine residues at the C terminus of Haloarcula marismortui bacteriorhodopsin I (HmBRI); residue numbers 1-9 count on: the TD peptide; also called TD tag; wild-type TD peptide; source: synthetic peptide
T11 chain: GTGATPADD

Test [12] concerns the target T12, TD peptide D9N (D9N (stands in the printed letters)).
T12 construct: TD peptide (C terminus of HmBRI) with D9N; numbers count on: the TD peptide; source: synthetic peptide
T12 chain: GTGATPADN

In test [13] the target is T13, TD peptide C1 (Asp9 removed) (Haloarcula marismortui (strain ATCC …)).
T13 construct: TD peptide residues 1-8 (Asp9 removed); numbers count on: the TD peptide; source: synthetic peptide
T13 chain: GTGATPAD

Test [14] addresses T14, TD peptide C2 (Asp8 and Asp9 removed) (Haloarcula marismortui (strain ATCC …)).
T14 construct: TD peptide residues 1-7 (Asp8 and Asp9 removed); numbers count on: the TD peptide; source: synthetic peptide
T14 chain: GTGATPA

B1: GD-26 Fab (antigen-binding fragment of monoclonal antibody GD-26) (Fab, V domains shown)
VH: QVQLRQSGPELVKPGASVKMSCRASGYTFTNYNIHWVRQRPGQGLEWIGWIYPVDGTTKYNEKFKDKTTLTSDKSSSTAYMSLSGLTSEDSAIYFCARGLDNWGQGTSVTVSS
VL: DVVLTQTPLSLSVTIGQPASISCRSSQRLLYSNGKTYLNWFQQRPGQAPKYLMFQVSKLGPGIPARFSGSGSETDFTLKISRVEAEDLGVYYCFQGTFFPHTFGGGTKLEMK
notes: Fab heavy chain of GD-26; whole chain in PDB 7DOH; light chain of GD-26; the Fab was secreted; source: Expi293F, transient co-transfection, secreted; purified (HisTrap Excel, Superdex 200 gel filtration)
Regarding B1, the Kd (commonly the equilibrium constant for the complex coming apart) in test [1] is 34.4 nM; in [2], 72.7 nM; in test [3], 73.4 nM; in test [4], 94 nM; in [5], 171 nM; in [6], 78.2 nM. The Kd in test [7] was 140 nM; in test [8], 892 nM; in [9], 46.5 nM; in test [10] it was 25.1 nM; in test [11] it was 12 nM; in test [12], 132 nM. The molecule further gave a Kd in test [13] of 273 nM. In addition, the binding result in [14] is recorded as “no binding”.
